Source: patent US20110189164A1, “Peptide Stabilizer Compounds and Screening Method” (Isogenica Ltd, priority 2005, published 2011)

Assays:
Human Thrombin = Human Thrombin (Homo sapiens, UniProt P00734); conditions: fifth round selected peptides; 1 hour incubation +/- Human Thrombin 0.1 unit/ml; anti-FLAG ELISA OD450
Experimental: The values represent ((OD450 nm reading after incubation with thrombin)/(OD450 nm reading after incubation without thrombin)) expressed as a percentage. 100% indicates complete protection from thrombin cleavage.
Recovered DNA from the fifth round of selection was amplified using PCR, purified and digested with NotI and NcoI. The DNA was then ligated into a similarly digested M13 gpIII phagemid vector and transformed into E. coli XL-1 blue cells, and plated on 2% glucose, 2×TY, 100 μg/ml ampicillin plates. Individual colonies were grown for the production of phage particles as previously described (Odegrip et al Proc. Natl. Acad. Sci USA 101 2806-2810 (2004)). NUNC Maxisorp plates were coated with 100 ng/well of anti-FLAG M2 antibody in PBS overnight at 4° C. ELISA assays were performed with bound phage being incubated for 1 hour in 2% BSA in PBS, +/−Human Thrombin (0.1 unit/ml). The assay was developed with SureBlue TMB peroxidase substrate (Insight Biotechnology, Middlesex, UK) and read at 450 nm.

trypsin = target: T1, trypsin (Bos taurus, UniProt P00760); assay: Incubation with trypsin-agarose, then ELISA against anti-FLAG antibody (trypsin resistance); format: in vitro ADME; conditions: two hours at 25° C.
T1 construct: purchased SIGMA-Aldrich or Novagen
T1 sequence (P00760 24-246): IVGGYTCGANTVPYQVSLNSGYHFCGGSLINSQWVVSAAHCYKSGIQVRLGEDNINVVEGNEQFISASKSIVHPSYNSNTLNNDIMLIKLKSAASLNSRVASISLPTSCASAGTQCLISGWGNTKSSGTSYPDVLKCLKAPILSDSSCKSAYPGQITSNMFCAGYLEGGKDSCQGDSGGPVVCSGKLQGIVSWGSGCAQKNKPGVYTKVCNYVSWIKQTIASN
Experimental: A. Unselected library peptides incubated with trypsin. B. Unselected library peptides incubated without trypsin. C. Round five thrombin selection peptides incubated with trypsin. D. Round five thrombin selection peptides incubated without trypsin.
Trypsin cleaves after R or after K, thus there are two trypsin sites fixed in the FLAG epitope and thrombin substrate sequence. Even partial resistance to trypsin is surprising as no selection for trypsin resistance was performed and the FLAG epitope is susceptible to trypsin cleavage. Such resistance is observed in round five peptides selected for thrombin resistance, but not in the un-selected library peptides (FIG. 3).

Q: How did the Thrombin resistant (Human Thrombin) turn out when HCVHEPQTKHES [SEQID 029] was run?
A: The Thrombin resistant was “resistant”.

Q: What about the Trypsin resistant (trypsin) of the same sequence?
A: Its Trypsin resistant is “resistant”.

Q: With HGHSPSDNANTR [SEQID 028] as the sequence, how does the Thrombin resistant (Human Thrombin) read?
A: The Thrombin resistant was “resistant”.

Q: What about the Trypsin resistant (trypsin) of the same sequence?
A: Its Trypsin resistant is “resistant”.

Q: What does the source list for ITPPDNSHTPDE [SEQID 027]?
A: Thrombin resistant (Human Thrombin): resistant; Trypsin resistant (trypsin): resistant

Q: How did the Thrombin resistant (Human Thrombin) turn out when PSCPNKQDPTHD [SEQID 030] was run?
A: Its Thrombin resistant is “resistant”.

Q: And the Trypsin resistant (trypsin)?
A: The Trypsin resistant was “resistant”.
